Measurements published in paper PMC10520083 (2023).
Read-outs that look alike come from different tables or passages of the source.

Assays:
[1] = molecular target: human α7 nicotinic acetylcholine receptor with the ICD replaced by a short linker and a C-terminal Rho1D4 tag (α7∆ICDcryo), reconstituted in MSP1E3D1 nanodiscs (human) (UniProt P36544); assay: cryo-EM structure; 1 µM α7 pentamer in MSP1E3D1 nanodiscs with 50 µM nanobody (50-fold excess), no nicotine (C4-Apo, E3-Apo)
[2] = molecular target: full-length human α7 nicotinic acetylcholine receptor fused to a Rho1D4 tag at its C-terminus (α7FLcryo) (human) (UniProt P36544); assay: cryo-EM structure; 1 µM α7 pentamer in MSP1E3D1 nanodiscs with 50 µM nanobody (50-fold excess) and 100 µM nicotine (C4-Nic, E3-Nic)
[3] = molecular target: human α7 nicotinic acetylcholine receptor with the ICD replaced by a short linker and a C-terminal Rho1D4 tag (α7∆ICDcryo), reconstituted in MSP1E3D1 nanodiscs (human) (UniProt P36544); assay: cryo-EM structure; 1 µM α7 pentamer in MSP1E3D1 nanodiscs with a sub-saturating 10 µM nanobody, no nicotine (C4partial-Apo; 2D classification for E3)
[4] = molecular target: human α7 nicotinic acetylcholine receptor with the ICD replaced by a short linker and a C-terminal Rho1D4 tag (α7∆ICDcryo), reconstituted in MSP1E3D1 nanodiscs (human) (UniProt P36544); assay: SPR; single-cycle kinetics, Biacore T200; α7-nanodiscs captured on anti-Rho tag antibody 1D4 immobilised on CM5; nanobodies injected (five increasing concentrations, 600 s each, 30 µl/min); buffer A (20 mM Tris, 250 mM NaCl) pH 8, 25 °C
[5] = molecular target: human α7 nicotinic acetylcholine receptor with the ICD replaced by a short linker and a C-terminal Rho1D4 tag (α7∆ICDcryo), reconstituted in MSP1E3D1 nanodiscs (human) (UniProt P36544); assay: as above; remark: listed apart in the source
[6] = molecular target: human α7 nicotinic acetylcholine receptor L247T mutant (human) (UniProt P36544)
[7] = molecular target: T1, human α7 nicotinic acetylcholine receptor with the ICD replaced by a short linker and a C-terminal Rho1D4 tag … (human, UniProt P36544 23-502, N-linked glycans at Asn23, Asn67 and Asn110); assay: SPR; α7 prep 1
T1 chain: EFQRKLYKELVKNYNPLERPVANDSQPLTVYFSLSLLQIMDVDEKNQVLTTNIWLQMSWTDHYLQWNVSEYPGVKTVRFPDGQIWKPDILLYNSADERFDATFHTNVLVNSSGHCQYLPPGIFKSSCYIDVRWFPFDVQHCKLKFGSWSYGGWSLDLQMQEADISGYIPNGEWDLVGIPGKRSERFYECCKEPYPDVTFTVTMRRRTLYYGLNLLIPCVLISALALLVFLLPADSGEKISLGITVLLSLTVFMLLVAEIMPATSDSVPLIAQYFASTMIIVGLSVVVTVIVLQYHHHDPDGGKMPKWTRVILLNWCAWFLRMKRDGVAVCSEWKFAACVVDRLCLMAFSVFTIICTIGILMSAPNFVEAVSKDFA

[8] = molecular target: T1, human α7 nicotinic acetylcholine …; assay: SPR; α7 prep 2
[9] = molecular target: T1, human α7 nicotinic acetylcholine …; assay: SPR; α7 prep 1
[10] = molecular target: T1, human α7 nicotinic acetylcholine …; assay: SPR; α7 prep 1, + 100 µM nicotine
[11] = molecular target: T1, human α7 nicotinic acetylcholine …; assay: SPR; α7 prep 1, + 100 µM nicotine
[12] = molecular target: human α7 nicotinic acetylcholine receptor with the ICD replaced by a short linker and a C-terminal Rho1D4 tag (α7∆ICDcryo), reconstituted in MSP1E3D1 nanodiscs (human) (UniProt P36544); assay: cryo-EM structure; 1 µM α7 pentamer in MSP1E3D1 nanodiscs with 50 µM nanobody (50-fold excess) and 100 µM nicotine (C4-Nic, E3-Nic)
[13] = molecular target: T1, human α7 nicotinic acetylcholine …; assay: SPR; α7 prep 2

human α7 nicotinic acetylcholine receptor with the ICD replaced by a short linker and a C-terminal Rho1D4 tag (α7∆ICDcryo), reconstituted in MSP1E3D1 nanodiscs (from UniProt P36544 23-502)
stoichiometry N [1]: 5

B1: nanobody C4 (VHH)
VHH: QVQLVESGGGLVQAGGSLKLSCAASGFTFAHYAMVWFRQAPGKEREFVAGISWSGASTYYASSVKGRFTISRDNAKNTVYLQMNSLKPEDTAVYYVAAARFGVGVDDDYSYWGQGTQVTVSS
stoichiometry N (nanobodies per α7 pentamer) [1]: 5 | stoichiometry N (nanobodies per α7 pentamer) [2]: 5 | stoichiometry N (nanobodies per α7 pentamer) [3]: 3 | Kd [4]: 0.2 nM | koff [4]: 0.00024 s⁻¹ | kon [4]: 1.2e+06 M⁻¹ s⁻¹ | stoichiometry N (nanobodies per receptor molecule) [4]: < 3 | Kd [5]: 0.1 nM

B2: nanobody E3 (VHH)
VHH: AVQLQASGGGLVQAGDSLRLSCAASGGTFSHYAVGWFRQAPGKEREFVAAISWSGRSTSFANSVKGRFTISRDSAKNTAYLQMNNLKPEDTAVYCCAPARFGTGSAARDEYDDCGQGTQVTVSS
increase of the holding current during pre-application of E3 in the absence of ACh (direct activation, TEVC, Xenopus oocytes) (% of the response to 0.3 µM ACh) [6]: 6 | koff [7]: 0.013 s⁻¹ | koff [8]: 0.019 s⁻¹ | Kd [9]: 8 nM | koff [10]: 0.0085 s⁻¹ | Kd [11]: 7.4 nM | stoichiometry N (nanobodies per α7 pentamer) [1]: 5 | stoichiometry N (nanobodies per α7 pentamer) [12]: 5 | Kd [4]: 1 nM | koff [4]: 0.0119 s⁻¹ | kon [4]: 1.1e+07 M⁻¹ s⁻¹ | stoichiometry N (nanobodies per receptor molecule) [4]: < 3

B3: nanobody E3 R56A (VHH)
VHH: AVQLQASGGGLVQAGDSLRLSCAASGGTFSHYAVGWFRQAPGKEREFVAAISWSGASTSFANSVKGRFTISRDSAKNTAYLQMNNLKPEDTAVYCCAPARFGTGSAARDEYDDCGQGTQVTVSS
koff [8]: 0.01 s⁻¹ | Kd [13]: 1.5 nM

B4: nanobody E3 E110Q (VHH)
VHH: AVQLQASGGGLVQAGDSLRLSCAASGGTFSHYAVGWFRQAPGKEREFVAAISWSGRSTSFANSVKGRFTISRDSAKNTAYLQMNNLKPEDTAVYCCAPARFGTGSAARDQYDDCGQGTQVTVSS
koff [8]: 0.011 s⁻¹ | Kd [13]: 0.62 nM
